This note sets out measurements from US20260250711A1 (Alexion, published 2026).

The test concerns the target T1, human sortilin receptor (SORT1), recombinant protein (human, UniProt Q99523 78-755, limits assumed).
T1 construct: Recombinant protein; also called sortilin 1
T1 sequence (looked up): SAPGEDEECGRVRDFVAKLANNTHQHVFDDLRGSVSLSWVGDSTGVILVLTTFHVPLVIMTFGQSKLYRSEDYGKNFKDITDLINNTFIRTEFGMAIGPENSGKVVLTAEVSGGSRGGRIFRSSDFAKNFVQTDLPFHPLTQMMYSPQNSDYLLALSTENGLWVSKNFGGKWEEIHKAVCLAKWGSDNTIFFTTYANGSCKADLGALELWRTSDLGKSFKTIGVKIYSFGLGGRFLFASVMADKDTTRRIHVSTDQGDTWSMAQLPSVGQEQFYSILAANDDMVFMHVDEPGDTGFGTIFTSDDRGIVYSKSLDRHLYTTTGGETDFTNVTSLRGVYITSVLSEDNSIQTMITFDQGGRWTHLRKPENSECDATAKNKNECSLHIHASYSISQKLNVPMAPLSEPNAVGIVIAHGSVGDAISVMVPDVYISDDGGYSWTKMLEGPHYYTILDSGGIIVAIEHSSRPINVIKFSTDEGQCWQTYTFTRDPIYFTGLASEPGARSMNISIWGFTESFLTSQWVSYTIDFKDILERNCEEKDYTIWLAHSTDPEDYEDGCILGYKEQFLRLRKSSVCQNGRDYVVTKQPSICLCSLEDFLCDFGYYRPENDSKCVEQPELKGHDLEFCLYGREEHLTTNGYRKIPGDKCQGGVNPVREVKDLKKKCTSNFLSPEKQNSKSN
As to the kind of experiment: Biacore (SPR), His-tagged PGRNΔ3 over immobilized human sortilin.

B1: recombinant human His-tagged progranulin lacking the final three carboxy-terminal amino acids (PGRNΔ3) (ligand)
chain: TRCPDGQFCPVACCLDPGGASYSCCRPLLDKWPTTLSRHLGGPCQVDAHCSAGHSCIFTVSGTSSCCPFPEAVACGDGHHCCPRGFHCSADGRSCFQRSGNNSVGAIQCPDSQFECPDFSTCCVMVDGSWGCCPMPQASCCEDRVHCCPHGAFCDLVHTRCITPTGTHPLAKKLPAQRTNRAVALSSSVMCPDARSRCPDGSTCCELPSGKYGCCPMPNATCCSDHLHCCPQDTVCDLIQSKCLSKENATTDLLTKLPAHTVGDVKCDMEVSCPDGYTCCRLQSGAWGCCPFTQAVCCEDHIHCCPAGFTCDTQKGTCEQGPHQVPWMEKAPAHLSLPDPQALKRDVPCDNVSSCPSSDTCCQLTSGEWGCCPIPEAVCCSDHQHCCPQGYTCVAEGQCQRGSEIVAGLEKMPARRASLSHPRDIGCDQHTSCPVGQTCCPSLGGSWACCQLPHAVCCEDRQHCCPAGYTCNVKARSCEKEVVSAQPATFLARSPHVGVKDVECGEGHFCHDNQTCCRDNRQGWACCPYRQGVCCADRRHCCPAGFRCAARGTKCLRREAPRWDAPLRDPALR
notes: also called PGRNDel3; progranulinΔ3; not shown: HIS-tag fused to the N-terminal part of the protein
Consider B1, for which the binding result was “no binding”.
